For data set [1], the target named is neutral endopeptidase (NEP) (Homo sapiens, UniProt P08473).
For data set [2], the target named is T1, NPR-B (Homo sapiens, UniProt P20594).
T1 sequence (P20594 23-1047): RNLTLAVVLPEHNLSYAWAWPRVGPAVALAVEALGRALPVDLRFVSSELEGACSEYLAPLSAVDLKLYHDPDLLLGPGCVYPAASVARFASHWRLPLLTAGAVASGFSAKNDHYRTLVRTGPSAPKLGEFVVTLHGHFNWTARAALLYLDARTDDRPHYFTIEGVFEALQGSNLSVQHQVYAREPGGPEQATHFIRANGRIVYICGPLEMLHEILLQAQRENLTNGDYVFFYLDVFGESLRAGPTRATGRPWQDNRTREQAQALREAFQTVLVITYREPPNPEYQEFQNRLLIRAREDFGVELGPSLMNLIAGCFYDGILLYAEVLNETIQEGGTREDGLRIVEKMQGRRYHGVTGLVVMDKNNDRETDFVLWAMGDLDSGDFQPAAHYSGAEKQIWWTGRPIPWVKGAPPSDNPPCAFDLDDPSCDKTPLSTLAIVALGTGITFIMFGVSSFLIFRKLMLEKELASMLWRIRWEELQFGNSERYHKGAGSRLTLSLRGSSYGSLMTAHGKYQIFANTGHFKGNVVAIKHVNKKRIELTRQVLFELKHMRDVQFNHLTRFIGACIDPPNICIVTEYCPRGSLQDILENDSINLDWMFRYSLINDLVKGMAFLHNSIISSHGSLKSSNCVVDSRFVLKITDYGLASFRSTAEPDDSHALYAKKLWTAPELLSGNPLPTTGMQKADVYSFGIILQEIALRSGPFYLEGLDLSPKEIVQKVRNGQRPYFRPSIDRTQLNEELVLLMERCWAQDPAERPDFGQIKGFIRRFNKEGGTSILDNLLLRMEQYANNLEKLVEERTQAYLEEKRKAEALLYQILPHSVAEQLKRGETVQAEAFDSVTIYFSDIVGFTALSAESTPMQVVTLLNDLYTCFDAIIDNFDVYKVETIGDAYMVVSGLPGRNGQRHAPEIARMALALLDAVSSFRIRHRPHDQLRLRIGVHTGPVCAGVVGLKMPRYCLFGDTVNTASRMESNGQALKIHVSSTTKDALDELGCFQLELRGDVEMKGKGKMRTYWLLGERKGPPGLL
Put plainly: Whole cell guanylyl cyclase (cGMP) assay, NPR-B. The class given is cell-based. Also on record: expressed in transfected cells. Particulars: for potency compared with CNP22: CNP22 position 17 point mutants, NPR-B whole cell cGMP assay (FIG. 30); for efficacy relative to CNP / potency relative to CNP (times less than that of CNP): NPR-B whole cell assay (FIG. 21C). The protocol:
HEK293S cells in a semi-confluent 75 cm2 flask are transfected with 30 μg of plasmid DNA coding for the appropriate receptor, e.g., human NPR-B or NPR-A, using Lipofectamine-2000CD. Alternatively, a stable polyclonal HEK293 S cell line expressing either human NPR-B or NPR-A was used. 24 hours after transfection, cells are trypsinized and plated into 48-well plates at 1×10^5 cells/well. Guanylyl cyclase assay is carried out 24 hours post-plating. Cells are first incubated for 30 minutes at 37° C. with serum-free DMEM medium. Then, they are incubated in triplicate with or without increasing concentrations of reference or test proteins in serum-free DMEM supplemented with 1 mM IBMX and 0.5% BSA, at 37° C. for 30 minutes to one hour. CNP serves as a suitable reference for NPR-B, while ANP is a suitable reference for NPR-A. Finally, cells are washed with ice-cold PBS and solubilized in lysis buffer from Catchpoint cGMP kit (Molecular devices). Concentrations of cGMP in lysate are determined using the Catchpoint cGMP kit. Dose-response curves are analysed with GraphPad Prism 5 software using non-linear regression with four-parameter logistic equation.

The target in data set [3] is T1, NPR-B. Put plainly: Membrane guanylyl cyclase (cGMP) assay, NPR-B. The class given is biochemical.
The mark [4] stands for this setting: first NPR-B membrane assay (FIG. 21A).
Setting [5] is: second NPR-B membrane assay (FIG. 21B).

Peptide text beside a SMILES is read from it.

Chain of neutral endopeptidase (NEP) (P08473 whole entry): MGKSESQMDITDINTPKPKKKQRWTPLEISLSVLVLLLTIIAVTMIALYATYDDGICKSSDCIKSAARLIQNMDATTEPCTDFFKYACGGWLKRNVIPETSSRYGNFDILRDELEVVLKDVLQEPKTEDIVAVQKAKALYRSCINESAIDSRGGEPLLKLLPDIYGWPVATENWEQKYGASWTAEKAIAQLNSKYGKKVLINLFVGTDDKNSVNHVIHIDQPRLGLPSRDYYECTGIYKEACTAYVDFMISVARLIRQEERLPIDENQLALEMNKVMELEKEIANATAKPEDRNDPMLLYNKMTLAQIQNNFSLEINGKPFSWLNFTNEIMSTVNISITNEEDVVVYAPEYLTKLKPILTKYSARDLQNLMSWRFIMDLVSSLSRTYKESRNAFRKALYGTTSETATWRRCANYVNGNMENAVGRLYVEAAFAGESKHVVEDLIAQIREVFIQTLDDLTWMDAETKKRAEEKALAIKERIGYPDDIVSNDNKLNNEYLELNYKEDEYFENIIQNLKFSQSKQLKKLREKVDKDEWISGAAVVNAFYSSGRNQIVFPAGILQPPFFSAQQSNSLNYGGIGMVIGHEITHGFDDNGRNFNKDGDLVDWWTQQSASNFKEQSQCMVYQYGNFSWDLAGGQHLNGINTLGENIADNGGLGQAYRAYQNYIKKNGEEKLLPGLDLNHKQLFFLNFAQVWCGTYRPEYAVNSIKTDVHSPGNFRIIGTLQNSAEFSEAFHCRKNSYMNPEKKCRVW

Consider `CC[C@H](C)[C@@H]1NC(=O)[C@H](CCCNC(=N)N)NC(=O)[C@H](CC(=O)O)NC(=O)[C@H](CC(C)C)NC(=O)[C@H](CCCCN)NC(=O)[C@H](CC(C)C)NC(=O)CNC(=O)[C@H](Cc2ccccc2)NC(=O)[C@@H](NC(=O)CNC(=O)[C@H](CCCCN)NC(=O)[C@H](CO)NC(=O)[C@H](CC(C)C)NC(=O)CN)CSSC[C@@H](C(=O)NCC(=O)N[C@@H](CO)C(=O)N[C@@H](CC(C)C)C(=O)N[C@@H](CCCNC(=N)N)C(=O)N[C@@H](CC(=O)O)C(=O)N2CCC[C@H]2C(=O)N[C@@H](CCCNC(=N)N)C(=O)N2CCC[C@H]2C(=O)N[C@@H](CC(N)=O)C(=O)N[C@@H](C)C(=O)N2CCC[C@H]2C(=O)N[C@@H](CO)C(=O)N[C@H](C(=O)N[C@@H](CO)C(=O)N[C@@H](C)C(=O)O)[C@@H](C)O)NC(=O)CNC(=O)[C@H](CC(C)C)NC(=O)CNC(=O)[C@H](CO)NC(=O)[C@H](CCSC)NC(=O)[C@H](CO)NC(=O)CNC1=O` [CDNP-G1] (HELM PEPTIDE1{G.L.S.K.G.C.F.G.L.K.L.D.R.I.G.S.M.S.G.L.G.C.G.S.L.R.D.P.R.P.N.A.P.S.T.S.A}$PEPTIDE1,PEPTIDE1,6:R3-22:R3$$$V2.0), for which the “sensitivity to NEP degradation” value in data set [1] is “comparable NEP sensitivity”.
Same read-out and setting: to `CC[C@H](C)[C@@H]1NC(=O)[C@H](CCCNC(=N)N)NC(=O)[C@H](CC(=O)O)NC(=O)[C@H](CC(C)C)NC(=O)[C@H](CCCCN)NC(=O)[C@H](CC(C)C)NC(=O)CNC(=O)[C@H](Cc2ccccc2)NC(=O)[C@@H](NC(=O)CNC(=O)[C@H](CCCCN)NC(=O)[C@H](CO)NC(=O)[C@H](CC(C)C)NC(=O)CN)CSSC[C@@H](C(=O)N[C@@H](Cc2c[nH]cn2)C(=O)N[C@@H](CO)C(=O)N[C@@H](CC(C)C)C(=O)N[C@@H](CCCNC(=N)N)C(=O)N[C@@H](CC(=O)O)C(=O)N2CCC[C@H]2C(=O)N[C@@H](CCCNC(=N)N)C(=O)N2CCC[C@H]2C(=O)N[C@@H](CC(N)=O)C(=O)N[C@@H](C)C(=O)N2CCC[C@H]2C(=O)N[C@@H](CO)C(=O)N[C@H](C(=O)N[C@@H](CO)C(=O)N[C@@H](C)C(=O)O)[C@@H](C)O)NC(=O)CNC(=O)[C@H](CC(C)C)NC(=O)CNC(=O)[C@H](CO)NC(=O)[C@H](CCSC)NC(=O)[C@H](CO)NC(=O)CNC1=O` [CDNP-H1] (HELM PEPTIDE1{G.L.S.K.G.C.F.G.L.K.L.D.R.I.G.S.M.S.G.L.G.C.H.S.L.R.D.P.R.P.N.A.P.S.T.S.A}$PEPTIDE1,PEPTIDE1,6:R3-22:R3$$$V2.0) belongs “comparable NEP sensitivity”; to `CC[C@H](C)[C@@H]1NC(=O)[C@H](CCCNC(=N)N)NC(=O)[C@H](CC(=O)O)NC(=O)[C@H](CC(C)C)NC(=O)[C@H](CCCCN)NC(=O)[C@H](CC(C)C)NC(=O)CNC(=O)[C@H](Cc2ccccc2)NC(=O)[C@@H](NC(=O)CNC(=O)[C@H](CCCCN)NC(=O)[C@H](CO)NC(=O)[C@H](CC(C)C)NC(=O)CN)CSSC[C@@H](C(=O)N[C@@H](CCCCN)C(=O)N[C@@H](CO)C(=O)N[C@@H](CC(C)C)C(=O)N[C@@H](CCCNC(=N)N)C(=O)N[C@@H](CC(=O)O)C(=O)N2CCC[C@H]2C(=O)N[C@@H](CCCNC(=N)N)C(=O)N2CCC[C@H]2C(=O)N[C@@H](CC(N)=O)C(=O)N[C@@H](C)C(=O)N2CCC[C@H]2C(=O)N[C@@H](CO)C(=O)N[C@H](C(=O)N[C@@H](CO)C(=O)N[C@@H](C)C(=O)O)[C@@H](C)O)NC(=O)CNC(=O)[C@H](CC(C)C)NC(=O)CNC(=O)[C@H](CO)NC(=O)[C@H](CCSC)NC(=O)[C@H](CO)NC(=O)CNC1=O` [CDNP-K1] (HELM PEPTIDE1{G.L.S.K.G.C.F.G.L.K.L.D.R.I.G.S.M.S.G.L.G.C.K.S.L.R.D.P.R.P.N.A.P.S.T.S.A}$PEPTIDE1,PEPTIDE1,6:R3-22:R3$$$V2.0), “slightly more sensitive to NEP than the other CDNP variants”; to `CC[C@H](C)[C@@H]1NC(=O)[C@H](CCCNC(=N)N)NC(=O)[C@H](CC(=O)O)NC(=O)[C@H](CC(C)C)NC(=O)[C@H](CCCCN)NC(=O)[C@H](CC(C)C)NC(=O)CNC(=O)[C@H](Cc2ccccc2)NC(=O)[C@@H](NC(=O)CNC(=O)[C@H](CCCCN)NC(=O)[C@H](CO)NC(=O)[C@H](CC(C)C)NC(=O)CN)CSSC[C@@H](C(=O)N[C@@H](CC(N)=O)C(=O)N[C@@H](CO)C(=O)N[C@@H](CC(C)C)C(=O)N[C@@H](CCCNC(=N)N)C(=O)N[C@@H](CC(=O)O)C(=O)N2CCC[C@H]2C(=O)N[C@@H](CCCNC(=N)N)C(=O)N2CCC[C@H]2C(=O)N[C@@H](CC(N)=O)C(=O)N[C@@H](C)C(=O)N2CCC[C@H]2C(=O)N[C@@H](CO)C(=O)N[C@H](C(=O)N[C@@H](CO)C(=O)N[C@@H](C)C(=O)O)[C@@H](C)O)NC(=O)CNC(=O)[C@H](CC(C)C)NC(=O)CNC(=O)[C@H](CO)NC(=O)[C@H](CCSC)NC(=O)[C@H](CO)NC(=O)CNC1=O` [CDNP-N1] (HELM PEPTIDE1{G.L.S.K.G.C.F.G.L.K.L.D.R.I.G.S.M.S.G.L.G.C.N.S.L.R.D.P.R.P.N.A.P.S.T.S.A}$PEPTIDE1,PEPTIDE1,6:R3-22:R3$$$V2.0), “comparable NEP sensitivity”.
Turning to “CNP-F17: CNP22 point mutant at position 17; SEQ ID NO: 119 (GLSKGCFGLKLDRIGSFSGLGC; Synthetic Construct (CNP-F17 (C15)))”, the “potency compared with CNP22” value in data set [2] is on record as “comparable potency to CNP22”.
As for “CNP-L17: CNP22 point mutant at position 17; SEQ ID NO: 120 (GLSKGCFGLKLDRIGSLSGLGC; Synthetic Construct (CNP-L17 (C16)))”, in data set [2], the “potency compared with CNP22” value is “comparable potency to CNP22”.
On the same count and under the same terms, the same measure for “CNP-R17: CNP22 point mutant at position 17; SEQ ID NO: 157 (GLSKGCFGLKLDRIGSRSGLGC; Synthetic Construct (CNP-R17))”: “improved potency”.
Same read-out and setting: the same measure for “CNP-T17: CNP22 point mutant at position 17; SEQ ID NO: 122 (GLSKGCFGLKLDRIGSTSGLGC; Synthetic Construct (CNP-T17 (C18)))”: “comparable potency to CNP22”.
On the same count and under the same terms, to “CNP-Y17: CNP22 point mutant at position 17; SEQ ID NO: 158 (GLSKGCFGLKLDRIGSYSGLGC; Synthetic Construct (CNP-Y17))” belongs “improved potency”.
As for “Fc-CNP53-A: N-terminal Fc, Gly3 linker, CNP53 with position 48 mutated to alanine; SEQ ID NO: 518”, the “efficacy relative to CNP” value in data set [3] (setting [4]) is listed as “slightly better efficacy than CNP”; in data set [3] (setting [5]), “comparable efficacy”; in data set [2] it was “comparable efficacy”. Also, the results for the “potency relative to CNP (times less than that of CNP)” value in data set [3] (setting [4]), in data set [3] (setting [5]) and in data set [2] were “more than twice the potency as CNP”, 1.3 times and 5.4 times, respectively.
On to “Fc-CNP53-AAA: Fc-CNP53-A with residues 30 and 31 of CNP53 mutated to alanine; SEQ ID NO: 520”, for which the figures for the “efficacy relative to CNP” value in data set [3] (setting [4]), in data set [3] (setting [5]) and in data set [2] were “about two-thirds of CNP's efficacy”, “comparable efficacy” and 74%, respectively. The “potency relative to CNP (times less than that of CNP)” value in data set [3] (setting [4]) was determined as 1.5 times; in data set [3] (setting [5]), 3.3 times; in data set [2], 14 times.

Values taken from patent publication US9266939B2, “Compositions comprising natriuretic peptides and methods of use thereof” (Alexion Pharmaceuticals, Inc., priority 2010, dated 2016).
